According to publication PMC8794075 (Emerging Microbes & Infections, 2022):

How the values were obtained:
SARS-CoV-2 NTD protein = SARS-CoV-2 NTD protein (SARS-CoV-2 Wuhan-Hu-1, UniProt P0DTC2); test: ELISA; conditions: both partners purified
[1] = biological target: SARS-CoV-2 RBD protein (wild type) (SARS-CoV-2, UniProt P0DTC2); test: ELISA; conditions: both partners purified

B1: MAb S3H3 (antibody, V domains shown)
VH: QVQLQQPGAELVRPGASVKLSCKASGYSFTRFWMNWVKQRPGQGLEWIGMIHPSDSETRLNQKFKDKATLTVDKSSTTAYMQLSSPTSEDSAVYYCARKDYDYDAWFAYWGQGTLVTVSA
VL: DIVLTQSPASLAVSLGQRATISCRASKSVSASVYSYMHWYQQKPGQPPKLLIYLASSLESGVPARFSGSGSGTDFTLNIHPVEEEDAATYYCHHSRELPPAFGGGTKLEIK
B1: no binding (tested: 100 ng/well) (SARS-CoV-2 NTD protein); no binding (tested: 100 ng/well) [1].
